T1: LRP5prop3,4LBD V5His (propellers 3 and 4 and ligand binding domain of LRP5, amino acids 642 to 1376 of … (UniProt O75197 642-1376))
T1 construct: range 642-1376; Secreted from HEK293T cells co-transfected with RAP; also called LRP5VHis prop3,4; not shown: V5 (and His) tag from the pcDNA3.1/V5 expression vector
T1 sequence (looked up): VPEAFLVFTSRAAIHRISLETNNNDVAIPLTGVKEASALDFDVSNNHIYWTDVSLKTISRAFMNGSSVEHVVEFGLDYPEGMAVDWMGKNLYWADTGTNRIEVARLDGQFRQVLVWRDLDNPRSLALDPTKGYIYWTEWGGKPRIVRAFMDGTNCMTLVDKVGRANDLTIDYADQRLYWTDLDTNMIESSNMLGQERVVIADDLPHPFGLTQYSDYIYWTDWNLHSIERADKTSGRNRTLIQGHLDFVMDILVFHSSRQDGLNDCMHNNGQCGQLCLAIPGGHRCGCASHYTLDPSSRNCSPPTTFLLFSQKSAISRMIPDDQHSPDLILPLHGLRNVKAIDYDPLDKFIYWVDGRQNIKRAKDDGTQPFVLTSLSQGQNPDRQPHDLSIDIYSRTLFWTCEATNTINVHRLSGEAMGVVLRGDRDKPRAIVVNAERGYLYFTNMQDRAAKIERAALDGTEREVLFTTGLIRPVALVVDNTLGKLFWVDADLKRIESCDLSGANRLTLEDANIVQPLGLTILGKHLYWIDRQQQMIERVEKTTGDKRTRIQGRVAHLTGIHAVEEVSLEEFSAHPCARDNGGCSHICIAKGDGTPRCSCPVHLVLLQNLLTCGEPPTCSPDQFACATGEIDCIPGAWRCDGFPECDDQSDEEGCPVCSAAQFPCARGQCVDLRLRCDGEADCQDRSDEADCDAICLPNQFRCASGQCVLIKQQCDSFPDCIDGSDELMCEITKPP

B1: Dkk1mycHis (wild-type human Dkk1 with C-terminal c-myc and His6 tags, secreted by HEK293T cells; used purified or as conditioned media) (ligand)
chain: ATLNSVLNSNAIKNLPPPLGGAAGHPGSAVSAAPGILYPGGNKYQTIDNYQPYPCAEDEECGTDEYCASPTRGGDAGVQICLACRKRRKRCMRHAMCCPGNYCKNGICVSSDQNHFRGEIEETITESFGNDHSTLDGYSRRTTLSSKMYHTKGQEGSVCLRSSDCASGLCCARHFWSKICKPVLKEGQVCTKHRRKGSHGLEIFQRCYCGEGLSCRIQKDHHQASNSSRLHTCQRHSRGPFEQKLISEEDLNMHTGHHHHHH
modifications: N-linked glycosylation (mammalian pattern); 125I-labelled by the chloramine-T method only in the radioligand assay of Example 10
notes: Secreted protein; also called WT; wild-type Dkk1
B2: Recombinant human Dkk1 from R&D Systems (Cat. No. 1096-DK/CF), baculovirus/insect cell derived (ligand, UniProt O94907 32-266, looked up)
chain: TLNSVLNSNAIKNLPPPLGGAAGHPGSAVSAAPGILYPGGNKYQTIDNYQPYPCAEDEECGTDEYCASPTRGGDAGVQICLACRKRRKRCMRHAMCCPGNYCKNGICVSSDQNHFRGEIEETITESFGNDHSTLDGYSRRTTLSSKMYHTKGQEGSVCLRSSDCASGLCCARHFWSKICKPVLKEGQVCTKHRRKGSHGLEIFQRCYCGEGLSCRIQKDHHQASNSSRLHTCQRH
modifications: 125I-labelled in the radioligand assay of Example 10 only
notes: Bought protein; no myc tag; also called R&D Dkk1; R&D Systems Dkk1

What was measured:
[1] = biological target: LRP5 protein (form not named at the place) (UniProt O75197); assay: cell-based or functional assay
[2] = biological target: T1, LRP5prop3,4LBD V5His (propellers 3 and …); assay: TR-FRET (anti-V5-Eu / anti-myc-Cy5), apparent Kd, concentrations of Dkk1 and LRP5prop34LBD varied, 50 mM PIPES pH 6.5
Experimental: The time resolved fluorescence resonance energy transfer (TR-FRET) platform was chosen to develop an assay for Dkk1-LRP5prop34LBD interaction because the TR-FRET assay is highly sensitive, easy to set up and capable of detecting weak interactions. For this assay, two labeled molecules are added to the system. If an interaction occurs, the labels are brought into close proximity and energy transfer occurs to release energy at specific wavelengths that can be detected. For detection of interaction between Dkk1 and LRP5prop34LBD, the Dkk1 (tagged with myc) is effectively labeled using a Cy5 labeled monoclonal anti-myc antibody. […] Cy5 absorbs at 615 nm and emits energy at 665 nm which is detected. The measurement was conducted on a Wallac EnVision 2100 Multilabel Reader from PerkinElmer Life Science. […] The interaction between Dkk1 and LRP5prop3,4LBD is expressed as the ratio of fluorescence intensity at 665 nm over 615 nm, which represents the energy transfer from the europium to Cy5 dye. […]
Kdapp Determination. The observed Kdapp was determined by varying concentrations of Dkk1 and LRP5prop34LBD in the reaction mixture containing 50 mM PIPES (pH 6.5), 0.5 mM DTT, 0.01% Tween-20, 0.5 nM V5-mAb-Eu, and 15 nM ,myc-Ab-Cy5. […] Kd-value determined here is a Kdapp-value as the antibody concentration is limiting in the assay. […]

[3] = biological target: T1, LRP5prop3,4LBD V5His (propellers 3 and …); assay: TR-FRET competition; untagged R&D Dkk1 titrated against myc-tagged Dkk1 binding to LRP5prop34LBD
Experimental: The time resolved fluorescence resonance energy transfer (TR-FRET) platform was chosen to develop an assay for Dkk1-LRP5prop34LBD interaction because the TR-FRET assay is highly sensitive, easy to set up and capable of detecting weak interactions. For this assay, two labeled molecules are added to the system. If an interaction occurs, the labels are brought into close proximity and energy transfer occurs to release energy at specific wavelengths that can be detected. For detection of interaction between Dkk1 and LRP5prop34LBD, the Dkk1 (tagged with myc) is effectively labeled using a Cy5 labeled monoclonal anti-myc antibody. The LRP5prop34LBD (tagged with V5) is effectively labeled using a Europium labeled monoclonal anti-V5 antibody. Europium is excited at 340 nm and re-emits energy at 615 nm. Cy5 absorbs at 615 nm and emits energy at 665 nm which is detected. The measurement was conducted on a Wallac EnVision 2100 Multilabel Reader from PerkinElmer Life Science. […] The interaction between Dkk1 and LRP5prop3,4LBD is expressed as the ratio of fluorescence intensity at 665 nm over 615 nm, which represents the energy transfer from the europium to Cy5 dye. […]
Dkk1 without a myc tag was purchased from R&D Inc. and is a Dkk1 synthesized in a baculovirus/insect cell system. […] The data were analyzed with Grafit 5 (Erithacus Software).

Binder	activity in the TCF luciferase assay compared with baculovirus Dkk1 (FIG. 4) (% greater activity than R&D Systems Dkk1) [1]	Kd [2] [nM]	IC50 [3] [nM]
B1	25	11.8	–
B2	–	–	1.42

Reference: patent US20080038775A1 (published 2008)
